Here are results for four molecules from patent US20100092481A1.

Test [1] concerns the target T1, hCMV gH protein, full length, expressed in HEK293T cells (human cytomegalovirus), P12824. In words: cell cross-competition, 20x excess; competitor 3G16-biotin. The note with it: remark: other sources report otherwise.
Test [2] deals with T1, hCMV gH protein, full length, expressed …. The experiment in a line: cell cross-competition, 20x excess; competitor 11B12-biotin. The note with it: remark: other sources report otherwise.
Test [3] shares this target. The experiment in a line: cell cross-competition, 20x excess; competitor 13H11-biotin. The note with it: remark: other sources report otherwise.
Test [4] has as its target gB 69-78 peptide (human cytomegalovirus) (UniProt P06473). In words: ELISA on peptide.

B1: 11B12 (antibody, V domains shown)
VH: QMQLVQSGPQVKKPGTSVKVSCKASGFTFTSSAMQWVRQARGQRPEWIGWIVLGSGNTNYAQKFQERVTLTRDMSTATAYMELSSLRSEDTAVYYCAADRGRGGYNVYTYWGQGTLVAVSS
VL: EIVMTQSPGTLSLSPGERATLSCRASQTISNTYVAWYQQKPGQAPRLLIYGASSRATGIPDRFSGSGSGTDFTLTIRRLEPEDFAVYYCQQNGQSPWTFGQGTNVEIK
With B1, the Inhibition of binding (%) stood at 0% in test [1], 100% in test [2] and 100% in test [3].

B2: 13H11 (antibody, V domains shown)
VH: QVQLVQSGAEVKKPGASVKVSCKASGYTFTNYYIHWVRQAPGQGLEWMGIIHPSSGGTSYAQKFQGRVTMTRDTSTSTVSMDLSSLRSEDTAVYYCGRAFRILGLSDVFVNDWGQGTVVTVSS
VL: DIQMTQSPSSLSASVGDRVTITCRASQGINNYLAWYQQKPGKVPKLLIYAASTLQSGVPSRFSGSGSGTAFTLTILSLQPEDVATYYCQKYNSAPFTFGPGTKVDIK
On to B2, for which the Inhibition of binding (%) is 0% in test [1], 100% in test [2] and 100% in test [3].

B3: 3G16 (antibody, V domains shown)
VH: RAQLVQSAAEMKNPGASVKVSCEASGYTFTGYYVHWMRQAPGQGLEWMGWINPMTGATKSPQKFQGRVTMTRDTSTTATHIELTRLRSDDSAVFFCARGGPTSTRITGKRHFDLWGRGTLITVAS
VL: QSALTQPASVSGSPGESITISCTGTISDVGAYNSVSWYQQHSGTAPELIIYDVTNRPAGVSSRFSGSKSGNTASLTISWLQSEDEAEYYCSSYTTSDTYVFGSGTQVTVL
As to B3, the Inhibition of binding (%) in test [1] stood at 100%; in test [2], 0%; in test [3] it was 0%.

B4: 6B4 (antibody, V domains shown)
VH: QVQLVESGGGVVQPGRSLRLSCAASGFRFNEFNMHWVRQAPGKGLEWVAVISIDGRHKYNADSVEGRFTISRDNSRNTLYLQMNSLRVEDTALYYCVTDGKAVDGFSGILEFWGQGTPVTVST
VL: EIVLTQSPATLSLSPGERATLSCWASQSVGGYLAWYQQKPGQAPRLLIYDASIRATGIPARFSGSGSGTHFTLTINSLEPEDFAVYYCQQRNNWPPLTFGGGTKVEIK
A word on the EC50: it is the concentration at which the effect is half-maximal. Lower therefore signals a more potent agent. B4 had an EC50 in test [4] of 0.044 µg/mL.
